Measurements taken from patent EP3727588B1 (UNIVERSITA' DEGLI STUDI DI MILANO, dated 2019).

How the values were obtained:
[1] = biological target: AP2 clathrin adaptor complex (in COS7 cells); test: cell-based or functional assay
[2] = biological target: T1, α-adaptin subunit of AP2 (rat) (rat, UniProt P58197); test: co-IP with anti-ADAM10; rat primary hippocampal neurons, 1 µM, 30 min; competitor ADAM10 (Fig. 1D)
T1 construct: Detected by Western blot as a read-out of the whole AP2 complex

[3] = biological target: T1, α-adaptin subunit of AP2 (rat); test: co-IP with anti-ADAM10, α-adaptin blot; rat acute hippocampal slices, 10 µM, 30 min; competitor ADAM10 (Fig. 1B)

T1 sequence (P58197 whole entry): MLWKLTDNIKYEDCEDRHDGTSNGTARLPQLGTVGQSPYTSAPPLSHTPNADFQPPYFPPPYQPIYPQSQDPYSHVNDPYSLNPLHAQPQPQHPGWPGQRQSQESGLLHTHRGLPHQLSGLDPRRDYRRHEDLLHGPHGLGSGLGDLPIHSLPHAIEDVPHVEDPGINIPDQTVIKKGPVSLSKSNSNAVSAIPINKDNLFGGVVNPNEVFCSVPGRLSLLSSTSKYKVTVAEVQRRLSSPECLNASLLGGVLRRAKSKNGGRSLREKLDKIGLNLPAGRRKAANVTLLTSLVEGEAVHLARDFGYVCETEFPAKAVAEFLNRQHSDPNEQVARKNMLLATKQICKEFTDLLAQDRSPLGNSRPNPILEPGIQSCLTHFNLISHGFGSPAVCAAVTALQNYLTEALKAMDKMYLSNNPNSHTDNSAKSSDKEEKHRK

Binder | internalization index of TacADAM10-RAR (fluorescence-based antibody uptake, COS7 cells, 1 µM, 30 min) [1] [%] | PEP/inPEP ratio of α-adaptin co-immunoprecipitated with ADAM10 (OD) [2] [%] | PEP/inPEP ratio of α-adaptin co-immunoprecipitated with ADAM10 (OD) [3] [%]
YGRKKRRQRRRGGSGQPPEQEPRG [inPEP3] | 1.3 | – | –
YGRKKRRQRRRGGSGLPPRQRPRL [PEP2] | -10.9 | 33.9 | 41.6
YGRKKRRQRRRGGSGLPPEQEPRL [inPEP2] | -1.84 | – | –
YGRKKRRQRRRGGSGQPPRQRPRG [PEP3] | -12.8 | 10.8 | 37.4
